The record followed here is US20250381289A1 (Genmab, published 2025).

The target in assay [1] is T1, Human EGFR (human, UniProt P00533).
T1 construct: recombinant protein; also called human EGFR recombinant protein
The experiment in a line: ELISA, coated human EGFR, anti-human Fc-HRP. On the technique in general: In an ELISA, binding on a coated surface is turned into a signal by an enzyme label.

For assay [2], the target named is T2, EGFR on EGFR and cMET co-expressed tumor cell lines (UniProt P00533 25-1210, limits assumed).
T2 construct: whole, on cells
The experiment in a line: flow cytometry, A549 cells (co-express EGFR and cMET; both arms contribute).

For assay [3], the target named is T3, cMET on EGFR and cMET co-expressed tumor cell lines (UniProt P08581 25-1390, limits assumed).
T3 construct: whole, on cells
The description is as above.

Assay [4] concerns the target T2, EGFR on EGFR and cMET co-expressed …. Description: flow cytometry, EBC-1 cells (co-express EGFR and cMET; both arms contribute).
Assay [5] addresses T3, cMET on EGFR and cMET co-expressed …. The description is as above.
Target sequence in this assay (P08581 25-1390 limits assumed): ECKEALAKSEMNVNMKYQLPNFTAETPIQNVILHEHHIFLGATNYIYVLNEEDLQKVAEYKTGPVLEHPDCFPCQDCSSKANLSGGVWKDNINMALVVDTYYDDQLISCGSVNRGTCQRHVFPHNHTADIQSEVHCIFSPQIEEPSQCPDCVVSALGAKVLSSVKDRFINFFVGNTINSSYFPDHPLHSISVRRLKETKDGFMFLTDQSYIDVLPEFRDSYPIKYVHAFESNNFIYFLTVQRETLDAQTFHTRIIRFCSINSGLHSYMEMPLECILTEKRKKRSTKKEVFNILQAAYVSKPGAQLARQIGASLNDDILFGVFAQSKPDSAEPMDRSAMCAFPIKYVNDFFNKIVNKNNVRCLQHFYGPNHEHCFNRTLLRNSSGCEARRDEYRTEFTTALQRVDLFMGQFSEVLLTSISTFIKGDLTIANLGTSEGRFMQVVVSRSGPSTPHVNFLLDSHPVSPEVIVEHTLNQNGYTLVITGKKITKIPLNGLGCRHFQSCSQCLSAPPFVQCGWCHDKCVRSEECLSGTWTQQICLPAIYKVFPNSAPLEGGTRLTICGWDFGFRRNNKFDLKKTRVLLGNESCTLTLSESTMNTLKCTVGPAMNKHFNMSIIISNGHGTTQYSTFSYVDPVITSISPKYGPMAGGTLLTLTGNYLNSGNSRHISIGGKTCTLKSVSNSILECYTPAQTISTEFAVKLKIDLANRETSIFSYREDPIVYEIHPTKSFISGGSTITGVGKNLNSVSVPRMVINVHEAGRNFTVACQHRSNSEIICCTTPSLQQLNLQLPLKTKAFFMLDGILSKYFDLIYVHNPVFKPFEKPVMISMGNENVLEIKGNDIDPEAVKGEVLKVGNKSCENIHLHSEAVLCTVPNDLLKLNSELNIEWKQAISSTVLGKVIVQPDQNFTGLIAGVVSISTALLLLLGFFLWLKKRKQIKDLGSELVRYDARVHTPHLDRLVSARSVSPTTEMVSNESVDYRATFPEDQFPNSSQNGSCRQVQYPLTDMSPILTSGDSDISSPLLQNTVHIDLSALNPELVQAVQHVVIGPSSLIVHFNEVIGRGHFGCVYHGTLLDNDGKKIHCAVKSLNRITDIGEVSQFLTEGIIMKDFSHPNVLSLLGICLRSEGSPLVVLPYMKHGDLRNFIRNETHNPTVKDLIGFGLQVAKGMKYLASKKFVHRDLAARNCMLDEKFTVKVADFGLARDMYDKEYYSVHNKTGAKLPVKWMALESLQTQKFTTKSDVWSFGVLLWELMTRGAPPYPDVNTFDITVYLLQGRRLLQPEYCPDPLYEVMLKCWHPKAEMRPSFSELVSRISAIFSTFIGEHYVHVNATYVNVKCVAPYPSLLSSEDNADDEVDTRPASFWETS
Assay [6] concerns the target T2, EGFR on EGFR and cMET co-expressed …. Description: flow cytometry, A431 cells (co-express EGFR and cMET; both arms contribute).
Assay [7] concerns the target T3, cMET on EGFR and cMET co-expressed …. The assay is described as above.
Target sequence in this assay (P08581 25-1390 limits assumed): as above
Assay [8] deals with T2, EGFR on EGFR and cMET co-expressed …. Description: flow cytometry, SNU-5 cells (co-express EGFR and cMET; both arms contribute). A general note: A flow cytometer gives signals particle by particle.
The target of assay [9] is T3, cMET on EGFR and cMET co-expressed …. Described as above.
Target sequence in this assay (P08581 25-1390 limits assumed): as above
Assay [10] addresses T2, EGFR on EGFR and cMET co-expressed …. The experiment in a line: flow cytometry, NCI-N87 cells (co-express EGFR and cMET; both arms contribute).
Assay [11] addresses T3, cMET on EGFR and cMET co-expressed …. Described as above.
Target sequence in this assay (P08581 25-1390 limits assumed): as above
Assay [12] addresses T2, EGFR on EGFR and cMET co-expressed …. The experiment in a line: flow cytometry, SW620 cells (named among the EGFR and cMET co-expressing lines; both arms contribute).
Assay [13] addresses T3, cMET on EGFR and cMET co-expressed …. The assay is described as above.
Assay [14] concerns the target T4, human cMET-Fc (human, UniProt P08581 25-932).
T4 construct: not shown: Fc part, not described
Description: blocking ELISA: coated human cMET-Fc, antibody titrated, then human HGF-His (blocked ligand), anti-His-HRP.

In assay [15] the target is T2, EGFR on EGFR and cMET co-expressed …. The experiment in a line: flow cytometry on EBC-1 cells (co-express EGFR and cMET), PE anti-human Fc; signal of the whole bispecific, not resolved by arm.
Assay [16] has as its target T3, cMET on EGFR and cMET co-expressed …. The description is as above.
In assay [17] the target is T2, EGFR on EGFR and cMET co-expressed …. Description: flow cytometry on SNU-5 cells (co-express EGFR and cMET), PE anti-human Fc; signal of the whole bispecific, not resolved by arm.
Assay [18] concerns the target T3, cMET on EGFR and cMET co-expressed …. The assay is described as above.
Target sequence in this assay (P08581 25-1390 limits assumed): as above

B1: Amivantamab (bispecific antibody, human IgG1, kappa)
heavy 1: not shown
light 1: not shown
heavy 2: not shown
light 2: DIQMTQSPSSVSASVGDRVTITCRASQGISNWLAWFQHKPGKAPKLLIYAASSLLSGVPSRFSGSGSGTDFTLTISSLQPEDFATYYCQQANSFPITFGQGTRLEIKRTVAAPSVFIFPPSDEQLKSGTASVVCLLNNFYPREAKVQWKVDNALQSGNSQESVTEQDSKDSTYSLSSTLTLSKADYEKHKVYACEVTHQGLSSPVTKSFNRGEC
notes: Bispecific positive control
Consider B1, for which the EC50 (read off the curve) (usually the concentration that produces a half-maximal response) is approximately 0.6 nM in assay [1]; approximately 1 nM in [2]; approximately 1 nM in [3]; approximately 1 nM in assay [4]; approximately 1 nM in assay [5]; approximately 4 nM in assay [6]. Besides, the “EC50 (read off the curve)” value was approximately 4 nM in [7]; approximately 2 nM in assay [8]; approximately 2 nM in assay [9]; approximately 2 nM in [10]; approximately 2 nM in assay [11]; approximately 0.2 nM in [12]. For the same molecule, the “EC50 (read off the curve)” value in assay [13] was approximately 0.2 nM; in assay [15], approximately 2 nM; in assay [16], approximately 2 nM; in [17], approximately 3 nM; in [18], approximately 3 nM. For the same molecule, in assay [14], the “IC50 (read off the curve)” value is approximately 0.8 nM.
